The values below come from article PMC7754472, “RPW8.1 enhances the ethylene‐signaling pathway to feedback‐attenuate its mediated cell death and disease resistance in Arabidopsis”.

Data set [1] addresses T1, GST-ORA59 (Arabidopsis thaliana, UniProt Q9LND1 1-244). As to the kind of experiment: EMSA; Chemiluminescent EMSA kit (Beyotime) EMSA/Gel-Shift binding buffer; salt, pH and temperature not stated. To be noted: protein: recombinant, tags: N-terminal GST (pGEX), blunt. A general note: Mobility shift assays separate free from complexed probe on a gel.
The target of data set [2] is T1, GST-ORA59. Briefly: competition; 5-, 25-, 50-fold excess vs biotin-OBS1; Chemiluminescent EMSA kit (Beyotime) EMSA/Gel-Shift binding buffer; salt, pH and temperature not stated. As to conditions: protein: recombinant; tags: N-terminal GST (pGEX); blunt.
In data set [3] the target is T1, GST-ORA59. As to the kind of experiment: competition; 5-, 25-, 50-fold excess vs biotin-OBS2; Chemiluminescent EMSA kit (Beyotime) EMSA/Gel-Shift binding buffer; salt, pH and temperature not stated. As to conditions: protein: recombinant; tags: N-terminal GST (pGEX); blunt.

T1 sequence (Q9LND1 whole entry): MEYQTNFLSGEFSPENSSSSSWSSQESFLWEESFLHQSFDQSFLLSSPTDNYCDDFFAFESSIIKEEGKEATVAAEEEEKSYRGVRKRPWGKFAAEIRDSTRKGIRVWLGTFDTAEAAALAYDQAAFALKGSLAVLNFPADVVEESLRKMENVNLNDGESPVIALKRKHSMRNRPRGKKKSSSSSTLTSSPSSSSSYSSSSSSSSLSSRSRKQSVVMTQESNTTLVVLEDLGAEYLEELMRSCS

B1: OBS3 (dsDNA)
DNA 1: TATGAGTCAATCTCTTGAATTGTCTTCATATAATTAAAACCACTCGTTAACTTGTTAA
DNA 2: TTAACAAGTTAACGAGTGGTTTTAATTATATGAAGACAATTCAAGAGATTGACTCATA
As to B1, the binding result with GST-ORA59 [1] (label: 3' biotin) was “binds”.

B2: OBS1 (dsDNA)
DNA 1: ACGTAATTCAATAATATTCTACGTAATTTAATACTCACGACAACTTGCATAT
DNA 2: ATATGCAAGTTGTCGTGAGTATTAAATTACGTAGAATATTATTGAATTACGT
As for B2, the binding result with GST-ORA59 [1] (label: 3' biotin (probe)) is reported as “binds”.

B3: mutant competitor V (OBS1, T/A-rich motif mutant) (dsDNA)
DNA 1: ACGTAATTCAAGAAGATTCTACGTAATTCAAGACTCACGACAACTTGCATAT
DNA 2: ATATGCAAGTTGTCGTGAGTCTTGAATTACGTAGAATCTTCTTGAATTACGT
Consider B3, for which the binding result with GST-ORA59 [2] was “no binding”.

B4: OBS5 (dsDNA)
DNA 1: ATGTACATAGATTCCTCTATATTCACCTCGAGAGCTAAACAACTACTTTCAAAAA
DNA 2: TTTTTGAAAGTAGTTGTTTAGCTCTCGAGGTGAATATAGAGGAATCTATGTACAT
As to B4, the binding result with GST-ORA59 [1] (label: 3' biotin) is recorded as “binds”.

B5: OBS2 (dsDNA)
DNA 1: TTGCATATAGATCCAACGATCTCCTCTTACCTAGAAAAAGAGAGAGTTGTTGACCCGTA
DNA 2: TACGGGTCAACAACTCTCTCTTTTTCTAGGTAAGAGGAGATCGTTGGATCTATATGCAA
Regarding B5, the binding result in the data set with GST-ORA59 [1] (label: 3' biotin (probe)) is “binds”.

B6: mutant competitor III (OBS2, BOX-W1 mutant) (dsDNA)
DNA 1: TTGCATATAGATCCAACGATCTCCTCTTACCTAGAAAAAGAGAGAGTTGTACACCCGTA
DNA 2: TACGGGTGTACAACTCTCTCTTTTTCTAGGTAAGAGGAGATCGTTGGATCTATATGCAA
Consider B6, for which the binding result in the data set with GST-ORA59 [3] is on record as “binds”.

B7: mutant competitor I (OBS2, T/A-rich motif mutant) (dsDNA)
DNA 1: TTGCAGACAGATCCAACGATCTCCTCTTACCTCGAAAAAGAGAGAGTTGTTGACCCGTA
DNA 2: TACGGGTCAACAACTCTCTCTTTTTCGAGGTAAGAGGAGATCGTTGGATCTGTCTGCAA
With B7, in the data set with GST-ORA59 [3], the binding result was “no binding”.

B8: mutant competitor II (OBS2, GAG-motif mutant) (dsDNA)
DNA 1: TTGCATATAGATCCAACGATCTCCTCTTACCTAGAAAAAGACACAGTTGTTGACCCGTA
DNA 2: TACGGGTCAACAACTGTGTCTTTTTCTAGGTAAGAGGAGATCGTTGGATCTATATGCAA
As for B8, the binding result with GST-ORA59 [3] is listed as “binds”.

B9: mutant competitor IV (OBS2, unnamed motif and TCT-motif mutant) (dsDNA)
DNA 1: TTGCATATAGATCCAACGATCTCGACTTACCTAGAAAAAGAGAGAGTTGTTGACCCGTA
DNA 2: TACGGGTCAACAACTCTCTCTTTTTCTAGGTAAGTCGAGATCGTTGGATCTATATGCAA
As to B9, the binding result in the data set with GST-ORA59 [3] is “binds”.

B10: OBS4 (dsDNA)
DNA 1: ACATAAAACTATTTAATATGGTTCCATCCTTCCATGTACATAGATTCCTCT
DNA 2: AGAGGAATCTATGTACATGGAAGGATGGAACCATATTAAATAGTTTTATGT
Turning to B10, in the data set with GST-ORA59 [1] (label: 3' biotin), the binding result is reported as “binds”.
